Assay results reported in US9988424.
Where two headings read alike, the source gives them in different places.

Key:
[1] = target: B.6240 gp140C (HIV-1); test: ELISA
[2] = target: B.JRFL gp140CF (HIV-1) (UniProt P20871); test: ELISA
[3] = target: C.CAP206 gp140, natively deglycosylated (HIV-1); test: ELISA
[4] = target: AE.A244 gp120 (HIV-1)
[5] = target: A.Q23 V1V2 tags (HIV-1); test: ELISA
[6] = target: AE.A244 V1V2 Tags (HIV-1); test: ELISA
[7] = target: AE.A244 gD+ gp120 (HIV-1); test: ELISA
[8] = target: AE.A244 gp120 (HIV-1); test: ELISA
[9] = target: AE.A244 gp120 delta 11 (HIV-1); test: ELISA
[10] = target: AE.A244 V1V2 Tags (HIV-1); test: ELISA; remark: listed apart in the source
[11] = target: AE.427299 gp120D11 (HIV-1); test: ELISA
[12] = target: AE.427299 gp120D11/Q169K (HIV-1); test: ELISA
[13] = target: AE.A244 gp120 D11/K169V/V172E/H173Y (HIV-1); test: ELISA
[14] = target: AE.A244 gp120 delta 11 (HIV-1); test: ELISA; remark: listed apart in the source
[15] = target: AE.A244 gp120D11/K169V (HIV-1); test: ELISA
[16] = target: AE.A244 V1V2 Tags (HIV-1)
[17] = target: Env of 1051.C22.LucR.T2A.ecto virus (HIV-1); test: cell-based or functional assay
[18] = target: Env of 427299.c12 virus (HIV-1); test: cell-based or functional assay
[19] = target: Env of 427299.c12.H81L virus (HIV-1); test: cell-based or functional assay
[20] = target: Env of 427299.c12.KL.Q169K/I181L virus (HIV-1); test: cell-based or functional assay
[21] = target: Env of 427299.c12.Q169K virus (HIV-1); test: cell-based or functional assay
[22] = target: Env of 644039.c01b-CM235LucR.T2A.11 virus (HIV-1); test: cell-based or functional assay
[23] = target: Env of 703357.2.I181L virus (HIV-1); test: cell-based or functional assay
[24] = target: Env of 703357.2.Q169K virus (HIV-1); test: cell-based or functional assay
[25] = target: Env of 703357.2.Q169KI181L virus (HIV-1); test: cell-based or functional assay
[26] = target: Env of 703357.2.Q169KR170Q virus (HIV-1); test: cell-based or functional assay
[27] = target: Env of 703357.2.Q169KR170QI181L virus (HIV-1); test: cell-based or functional assay
[28] = target: Env of 703357.c02 virus (HIV-1); test: cell-based or functional assay
[29] = target: Env of 92TH023 K169Q virus (HIV-1); test: cell-based or functional assay
[30] = target: Env of AE.92TH023 virus (HIV-1); test: cell-based or functional assay
[31] = target: Env of AE.CM244 virus (HIV-1); test: cell-based or functional assay
[32] = target: Env of CM235-2.LucR.T2A.ecto virus (HIV-1); test: cell-based or functional assay
[33] = target: Env of CM244.c01.ETH2220LucR.T2A.4 virus (HIV-1); test: cell-based or functional assay
[34] = target: Env of CM244NW.4.K169Q virus (HIV-1); test: cell-based or functional assay
[35] = target: Env of CM244NW.6.I181L virus (HIV-1); test: cell-based or functional assay
[36] = target: Env of Ce1086_B2.LucR.T2A.ecto virus (HIV-1); test: cell-based or functional assay
[37] = target: Env of Ce1176_A3.LucR.T2A.ecto virus (HIV-1); test: cell-based or functional assay
[38] = target: Env of Du151.2.LucR.T2A.ecto virus (HIV-1); test: cell-based or functional assay
[39] = target: Env of Du422.1.LucR.T2A.ecto virus (HIV-1); test: cell-based or functional assay
[40] = target: Env of RHPA.LucR.T2A.ecto virus (HIV-1); test: cell-based or functional assay
[41] = target: Env of SC22.3C2.LucR.T2A.ecto virus (HIV-1); test: cell-based or functional assay
[42] = target: Env of TH023.6.I181L virus (HIV-1); test: cell-based or functional assay
[43] = target: Env of WITO.LucR.T2A.ecto virus (HIV-1); test: cell-based or functional assay
[44] = target: 92TH023 V2 cyclic peptide (HIV-1); test: RPMI 8866 cell adhesion to coated peptide, mAb 10 ug/ml
[45] = target: Env of AE.CM235 on infected CD4+ T cells (HIV-1)
[46] = target: Env of AE.CM235 on infected CD4+ T cells (HIV-1); test: flow cytometry on IMC CM235-infected CD4+ T cells, 10 ug/ml, negative control
[47] = target: AE.A244 gp120 N160K (HIV-1); test: ELISA
[48] = target: C.1086 gp120 Δ7 (HIV-1); test: ELISA
[49] = target: J08 C.97ZA012V1V2N156QN160Q (HIV-1); test: ELISA
[50] = target: α4β7 on RPMI 8866 cells (UniProt P13612)
[51] = target: α4β7 on RPMI 8866 cells (UniProt P13612); test: cells preincubated with ACT-1, adhesion to MADCAM-1 (competitor; 2 ug/ml)

Chain of CH59 (antibody) (VH): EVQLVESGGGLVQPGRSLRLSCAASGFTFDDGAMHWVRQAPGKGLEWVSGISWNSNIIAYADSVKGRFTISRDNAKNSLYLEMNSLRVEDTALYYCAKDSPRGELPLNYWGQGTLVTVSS
Chain of CH59 (antibody) (VL): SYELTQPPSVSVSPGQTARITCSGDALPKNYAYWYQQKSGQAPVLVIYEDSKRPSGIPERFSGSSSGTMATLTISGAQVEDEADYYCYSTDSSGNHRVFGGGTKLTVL
Chain of CH01 (antibody) (heavy, form in doubt): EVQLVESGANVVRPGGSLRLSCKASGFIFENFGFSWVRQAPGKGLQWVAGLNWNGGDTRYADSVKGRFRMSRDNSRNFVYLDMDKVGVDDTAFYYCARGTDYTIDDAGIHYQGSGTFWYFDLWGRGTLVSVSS
Chain of CH01 (antibody) (light, form in doubt): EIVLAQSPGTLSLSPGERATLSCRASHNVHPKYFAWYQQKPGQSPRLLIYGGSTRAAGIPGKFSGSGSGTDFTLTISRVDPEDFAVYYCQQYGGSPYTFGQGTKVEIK

PG9 (antibody)
EC50 [1]: 0.3 nM | EC50 [2]: 273 nM | EC50 [3]: 279 nM

CH01 (antibody)
IC50 [4]: 10 to 100 nM | EC50 [5]: > 66.7 nM | EC50 [6]: 8.9 nM | EC50 [7]: 0.9 nM | EC50 [8]: 1.3 nM | EC50 [9]: 0.47 nM | EC50 [1]: > 667 nM | EC50 [10]: 1.7 nM | EC50 [11]: > 10 µg/mL | EC50 [12]: > 10 µg/mL | EC50 [13]: 0.93 µg/mL | EC50 [14]: 0.35 µg/mL | EC50 [15]: 0.13 µg/mL | Kd [16]: 334 nM | koff [16]: 0.0076 s⁻¹ | kon [16]: 23000 M⁻¹ s⁻¹ | ID50 assayed in A3R5.7 cells, 1051.C22.LucR.T2A.ecto [17]: > 25 µg/mL | ID50 assayed in TZM-bl cells, 427299.c12 [18]: 0.09 µg/mL | ID50 assayed in TZM-bl cells, 427299.c12.H81L [19]: 0.16 µg/mL | ID50 assayed in TZM-bl cells, 427299.c12.KL.Q169K/I181L [20]: 0.15 µg/mL | ID50 assayed in TZM-bl cells, 427299.c12.Q169K [21]: 0.18 µg/mL | ID50 assayed in A3R5.7 cells, 644039.c01b-CM235LucR.T2A.11 [22]: > 25 µg/mL | ID50 assayed in TZM-bl cells, 703357.2.I181L [23]: > 25 µg/mL | ID50 assayed in TZM-bl cells, 703357.2.Q169K [24]: > 25 µg/mL | ID50 assayed in TZM-bl cells, 703357.2.Q169KI181L [25]: > 25 µg/mL | ID50 assayed in TZM-bl cells, 703357.2.Q169KR170Q [26]: > 25 µg/mL | ID50 assayed in TZM-bl cells, 703357.2.Q169KR170QI181L [27]: > 25 µg/mL | ID50 assayed in TZM-bl cells, 703357.c02 [28]: > 25 µg/mL | ID50 assayed in TZM-bl cells, TH023.6.K169Q [29]: 22.8 µg/mL | ID50 assayed in TZM-bl cells, TH023.6 [30]: > 25 µg/mL | ID50 assayed in TZM-bl cells, CM244.ec1 [31]: 0.02 µg/mL | ID50 assayed in A3R5.7 cells, CM235-2.LucR.T2A.ecto [32]: 0.04 µg/mL | ID50 assayed in A3R5.7 cells, CM244.c01.ETH2220LucR.T2A.4 [33]: 0.33 µg/mL | ID50 assayed in TZM-bl cells, CM244NW.4.K169Q [34]: 0.05 µg/mL | ID50 assayed in TZM-bl cells, CM244NW.6.I181L [35]: 0.03 µg/mL | ID50 assayed in A3R5.7 cells, Ce1086 B2.LucR.T2A.ecto [36]: > 25 µg/mL | ID50 assayed in A3R5.7 cells, Ce1176 A3.LucR.T2A.ecto [37]: 0.04 µg/mL | ID50 assayed in A3R5.7 cells, Du151.2.LucR.T2A.ecto [38]: 1.51 µg/mL | ID50 assayed in A3R5.7 cells, Du422.1.LucR.T2A.ecto [39]: > 25 µg/mL | ID50 assayed in A3R5.7 cells, RHPA.LucR.T2A.ecto [40]: 8.2 µg/mL | ID50 assayed in A3R5.7 cells, SC22.3C2.LucR.T2A.ecto [41]: > 25 µg/mL | ID50 assayed in TZM-bl cells, TH023.6.I181L [42]: > 25 µg/mL | ID50 assayed in A3R5.7 cells, WITO.LucR.T2A.ecto [43]: 0.05 µg/mL | % inhibition [44]: -11.2%

Synagis (antibody)
FITC MFI [45]: 3600 | % of p24+ cells stained (background) [46]: 11%

CH59 (antibody)
EC50 [47]: 0.04 nM | EC50 [48]: 0.07 nM | EC50 [3]: > 667 nM | EC50 [49]: > 667 nM

PG16 (antibody)
EC50 [1]: 10.3 nM

ACT-1 (antibody)
% inhibition [50]: 53.3% | % inhibition [51]: 71.3%

A32 (antibody)
% positive cells [45]: 94% | FITC MFI [45]: 19900
